Measurements reported in a protein production outcome set (Wang et al. 2014).

Experiment: label from the status in PepcDB records
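Note: failed if final PepcDB status was selected cloned or expressed and not failed if soluble or beyond.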

Sequence	protein production
MPLSYSSPSLSEERSDDPSKYDGDFGVPQICFCGKQLELVERLIGDQKKTFLKCPMSGQDDNYHVDKGWDLVVHEQCFCIDKRFGEHRELIQNAFKFGGDSNRLQINQIRAEIEDLKDRLDKKDAEITRLMDALGKK	failed
MNEDGNDTPRPLGEVPEFRRIRSGPLPPHQNIPPRRRAPADQLPWLPSAAARRRRAALLLCGFLSAVVLLVSGSSWAVTGWLSDQLHRYDVFTGLLDENRPPASQGALNFLVIGSDDRSGLDSRQRSELGVGNVEGRRSDTMMLVHLNHQREHITVVGIPRDSWVRIPGHGPDKINAAYSLGGPQLAVQTVEAATGVRIDHYVEIDFTGFVEVVDTLGGITVCLPEAIHDEKAHLSLEAGTHRLQGTQALAFARTRKSPHGDLDRIDRQQQVLAALLDEALNAQILSDPARLAQFVETALGSITVDDTLDTAALIQLGTQLRSLGLDDVTFTQVPVDRIDFWTPSGEVAVTWHEQHATELFTAIAADRPIPQPQSAEDSALPSPDEVTVEVYNGTTIPGLGAQVRVELLESGFQVPESAGNWPQQDLAETLVRYSPEREDAATLLVESIPGARAEVDPGLGGRVQVIAGVNHTGVAVPAHAASPIAEQPVDVGGRETVHTRTAAENVCR	failed
MKKSINEQKTIFIILLSNIFVAFLGIGLIIPVMPSFMKIMHLSGSTMGYLVAAFAISQLITSPFAGRWVDRFGRKKMIILGLLIFSLSELIFGLGTHVSIFYFSRILGGVSAAFIMPAVTAYVADITTLKERSKAMGYVSAAISTGFIIGPGAGGFIAGFGIRMPFFFASAIALIAAVTSVFILKESLSIEERHQLSSHTKESNFIKDLKRSIHPVYFIAFIIVFVMAFGLSAYETVFSLFSDHKFGFTPKDIAAIITISSIVAVVIQVLLFGKLVNKLGEKRMIQLCLITGAILAFVSTVMSGFLTVLLVTCFIFLAFDLLRPALTAHLSNMAGNQQGFVAGMNSTYTSLGNIFGPALGGILFDLNIHYPFLFAGFVMIVGLGLTMVWKEKKNDAAALN	failed
MSKVEQNAQHNIQQTSPNAAVQSGLQEWHRIIAEADWERLPDLLAEDVVFSNPSTFDPYHGKGPLMVILPAVFSVLENFQYARHFSSKSGYVLEFNANMGDELLTGVDLIEFNDAGKITDLVVMMRPASVVIDLSVEVGKRIAAAQS	not failed
MKPADLTNADRIALELGHAGRNAIPYLDDDRNADRPFTLNTYRPYGYTPDRPVVVVQHGVLRNGADYRDFWIPAADRHKLLIVAPTFSDEIWPGVESYNNGRAFTAAGNPRHVDGWTYALVARVLANIRAAEIADCEQVYLFGHSAGGQFVHRLMSSQPHAPFHAVTAANPGWYTLPTFEHRFPEGLDGVGLTEDHLARLLAYPMTILAGDQDIATDDPNLPSEPAALRQGPHRYARARHYYEAGRRAAAQRGLPFGWQLQVVPGIGHDGQAMSQVCASLWFDGRMPDAAELARLAGSQSA	failed
MGDRIAVQAEPTPAKLRGAASGDLVMRKVCMQQWRPTAPRGEYVSTEWSAGYVTDVNYTFGYYGELNPLRCRLPLLTVGRHAPKIENACELGFGQGLSVSIHAAAQPGINWYGTDFNPSQAAFAAEMVRLSGAEAKLYDEAFAEFCNRKDLPDFDFIGLHGIWTWISDQNRHVLVDFIRRKLRPGGVLYISYNTLPGWSSSAPIRHLMKRHADVMGAPGQGVIGQTDAALNFIDQFLALDPLYAKVNPGAVERLKQVKAQDRKYLAHEYMNRDWHPMYFADVENWLGDAKVGFACSAHVLDNLYDLNMTPQQTEFMRDVSDVSLRETIRDFCMNQQFRRDYWVRGVRALIGHEQVAAMREERVVMTVAQADLPTKVRGVIGEATLNDDVYQPLFEILLDHKPHSVLELETHLASKSLHFGQLSSALTILLGLGVITTAAAAQDVSKAKARTLALNKTIARRSLSVGDIAYFASPITGGGITASRFAQLFWLSRQNGGKTAEDWASFAYQVLQGQGQAIIKDGATLQGEDNLTELRAQATHWGAHVLPIWNALGV	failed
MTIYHFVGIKGSGMSALAQILHDKGFQVQGSDVDKYFFTQKALEEKQIPIMTFSADNIQEGLTIIAGNAFPDTHEEIERALELGLSVIRYHKFLGQLIDGYTSIAITGSHGKTSTTGLLSHVVGAIRPTSYLIGDGTGSGTKDAEYFALEACEYQRHFLAYKPTYAIMTNIDWDHPDYFKSVDDVFNAFETLGKQVKKAVFALGDDAELRKLTLDIPIIYFGFGEENEFQAKNVIKETTGTKFDVYHREEFLSSFEIPAYGDHNVLNALSVIALCDYEGLPVEDVKNELKTFEGVKRRFSITEKGNQVLVDDYAHHPSEIRATVNAARQKYPDKKVVAVFQPHTFTRTRTFLQGFADSLNLADEVYLCDIFGSAREKTGNLTIADLAHKTKGNHIIKEEHTEELLKYPEAVILFMGAGDVQKFQAAYEKVLDHEFLTEADLKKSAIN	failed
EQQADGTWLMDGWISIRKASNLLEHDLVDEAERYSTLGGYLLWQFGYIPAAGEQITVDGLIFEIVSVNKHNIGKVRVHRTQPENE	not failed
MKNTPIERNVIDETINEFQIVDFSKATIREVKAIASKAEAVSGVEFIKMEMGVPGLPASAVGVKAEIEALQNGIASLYPDINGLPELKKEASDFIKAFINVDLSPEGCVPVTGSMQGTFASFLTCSQCDEKKDTILFIDPGFPVQKQQLVVMGQKYETFDVYDYRGDKLKEKLESYLRKGNISAIIYSNPNNPSWICLKDEELRIIGELATQYDVIVLEDLAYFAMDFRQDLSTPYQAPFQPSVAHYTDNYVLLISGSKAFSYAGQRIGVSCISDKLYHRSYPGLTKRYGGGTFGTVFIHRVLYALSSGTSHSAQYAMAAMLKAANEGQYNFLSEVKVYGDRAQKLKEIFLRHGFYLVYDNDLGDPIADGFYFTIGYPGMTSGELAKELMYYGVSAISLVTTGSHQEGLRACTSFIKDHQYAQLDERMKLFAEHHPIA	not failed
MRIAVVGATGRIGSKLTRTLLGAGHQVKALSRGGAALEALVEAGAEPFLGSFDTGAGALDTFFQDVEAAFLMVKTDWNNIEGHYPAVAQRFVDALRGSPVKLAVSLSAMGSDVDGKTGHFELFHHLDQRLNELNDIDMVHLRAAWFMENTLAWTASVAKYGRLAWFYEPDLKMPWVATDDIAGLAAKELTNPTGDHRVIRETGSEDLTMNELAAMIGREIGKPVEYRFIDRGRKEIENEYLARFGTPEHWLDDSRSADALNHGVVRFQGGDDVRPVLPTTMEAFLKTIWTPRYLEALASEGKPETFEMWCAR	failed
MIFMQTSSYHSVTSVIFDKNTQNHTSIAIWLLICCALVFAMVVVGGVTRLTGSGLSIVEWKPIVGTIPPISQGDWEILLEKYRQIPQYEQINKGMTLDEFKGIFWWEYFHRLLGRLIGLVYFVPFVYFMVRKRVDRVLGTKLLGIFVLGGLQGLMGWYMVMSGLADNVYVSQYRLTAHLGLAFIIYAAMFWVATGLLSPVNTHSADPASVRKLGRFARILTGLIFFMVLSGGLVAGIHAGKAYNTFPLMDGFFIPPALFVLEPWYRNFFDNITTVQFDHRMIAWLLMFTIPLFWFKARQLSLSWSGRLACHLLLIMLCTQVALGITTLLLSVPLTFAAAHQAGAVLLFTAALWVCRKLS	failed
MSEPKKHKDAAVDDRAVQPSRRNFLKFGASGIAAATLSTWIPSDGMLQAAPVAPVLPVVEDRDAPAAGEHRIQLKVNGQVHTLNVPANAVLLDVLRDRLQLTGTKKGCDHGQCGACTLLVNGVAINSCLSIAVQHQGDSITTIEGLAENGKLHPVQEAFWEHDAYQCGYCTSGQIMSAVAILKDPNLGSDDASVREAMSGNICRCGAYKNILSAVQSARSKMGAV	failed
MTELRPGGPMYGPTPPLPLPTDRLQFAMPPMYESLDDERTHRKERLAGALRLFGRLGFEDGVSGHITARDPEYSDCFWVNPFGMPFKHVTVSDLVMVNASGQVIEGRYHVNQAAFTVHAQVHAARPDVVAVAHCHSVHGRALSALGDLLDPITQESCAFYEDHALYDAYTGVAVDAEEGRRIASALDTRKALVLRNHGLLTVGDSVDAAAWWFVSMERSCQVQLTARAAGRPVLIDHKQAVATREQLGGDLVAWINYQPLWQDISRSEPDLLS	failed
KKPKHHVLSHDIIPASKPIAEKLQIQPESPVVELKRILYNDDQPLTFEVTHYPLDLFPGIDTFIADGVSMHDILKQQYKVVPTHNTKLLNVVYAQQEESKYLDCDIGDALFEIDKTAFTSNDQPIYCSLFLMHT	not failed
MENETGGKDREVVEAVTNSEPGNGDGFAKKGDSYDDKLPSENVDKHMENEANEKEKEEDGAADELCALQDALETTLFQHLSNYAQKQMLQKLRSLRAKERKELSGEWKSLLAQEALLKSKKYSFSAELANATFHTWEEETRRMVL	not failed
PGEAVGVTIFEMALDELAEKAGLDPLELRLRNIPEEDPETGKPFTSHMLAEALRDGADRFGWSDRRAPGERRQGEWLIGMGMASAVRVNMLHKARVRVTLTGEGALVESSMTDIGTGTYTILTQIVAEMLGLAPDRVRTVLGDTDLPEGSGSGGSIGAASNGSAAFLACEEIRRQIAAGMGCPEEELTLKDGRATCGNRTRDLAEIVTQPLSAEGHFEPGKALKGVRSSTFGAHFAEVAVNEITGEVRVRRMLGAFAAGRILNEKTARSQCLGGMTFGIGMALMEEMVHDRRFGQVVSRDLANYHIPAHADVPALEVHFLEERDSYGGTLQAKGIGELGICGSGAAVLNAIHNACGVRVRDLPATPDKVLDGL	failed
MERIRWLYGFLACILIAILLAPLQIMAQGEFRTSDQPLVYYIPVEQEVERGLEAFLQRSLDSAVEEGADHIVLEINTPGGRVDAAGNMARALRETDIPITAYVIDQALSAGAYIALNADEIVMAPGSTMGSAAVIDSAGNAADEKAQSYWLAEMRNAAEYNDRDPKYALAMADRSIEIPELDISNEELLTLTASQALEVNYAEAIASNRAELLEHLQIDNAFEQEMEVSFAEKLARFVTNPLIIPILLSIGSLGLVLELYSPGFGVPGIMGISALLLFFFGHLIAGFAGYEAMILFIAGFLLILIEVFMPGFGLFGILGIAGMIGGMLLASFSTAWMLVSLGISAVVTTVVAIITFRYFGSRGPWKKMILTESTSSEKGYITNETRQELVGLIGQSLTPLRPSGSGLFGEERLDVVSEGGYIEQGRKIKVVSTSGSRIVVRETDE	failed
MALKPTIYKFRIALSDMNNDYYDSKNLTIALHPSEKPQRMLARILAFCLNAQKDLEFTKGLSTTEEPDLWHVADDQSITHWIEIGEPEPDRIKKASRLAKQVKVYTYNTKAPVWWEKMSGKFSMLPVSVESFDYDAIDMICQHLDRGTNLSVMITGTSIFVDVNDQHVEVTVKELQSHDAP	not failed
MQILQTFVQSIQGVMTIIVMIAVGYLLARWGWFNESATKLIARLVTQIALPAYMIATITKQFTAHKLLSTLPGLRFPVLNMAILFGISFGVMRALNIKKSHRGLFASMFLNSNTVFIGLPVNQALFGNSALPYVLVYYMANTTIFWTLGVYLIQRDGTGTAKFDLKQTLTKIFSPPLLGFMIGVLLVLGNIHVPKFLMDDFSYIGGLTIPLSMIFIGISMANAGLSSMRFDRDSLGILLGRFILAPVLMTLMLIPMSIPLEMKQVFILQSAMPVMTNAPVVSKLYGADADYAAVMVTETTLLSLIVIPILMVIVQANFIR	failed
